Experimental data from patent US20240092879A1.

How the values were obtained:
[1] = target: Centruroides sculpturatus whole venom (toxic components CsEM1a and CsEd, ~10% of the venom); assay: cell-based or functional assay
[2] = target: CsEM1a toxin from Centruroides sculpturatus venom (Centruroides sculpturatus); assay: SPR (Biacore X), toxin on CM5 chip, scFv injected, 25 C, Langmuir 1:1
[3] = target: CsEd toxin from Centruroides sculpturatus venom (Centruroides sculpturatus); assay: as above

Chain of CsEM1a toxin from Centruroides sculpturatus venom (Centruroides sculpturatus) (P56646 whole entry): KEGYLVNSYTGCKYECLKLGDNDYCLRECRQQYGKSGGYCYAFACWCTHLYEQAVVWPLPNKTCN
Chain of scFv 10FG2 (SEQ. ID. NO: 1) (scFv): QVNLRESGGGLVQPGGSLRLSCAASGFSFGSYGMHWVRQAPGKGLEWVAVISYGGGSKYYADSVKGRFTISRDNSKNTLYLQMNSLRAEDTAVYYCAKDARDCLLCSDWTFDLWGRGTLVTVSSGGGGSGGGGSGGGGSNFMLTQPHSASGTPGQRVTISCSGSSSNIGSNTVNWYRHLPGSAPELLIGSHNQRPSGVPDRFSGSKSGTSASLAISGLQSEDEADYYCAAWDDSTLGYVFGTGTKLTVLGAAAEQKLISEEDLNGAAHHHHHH

Substance scFv 10FG2 (SEQ. ID. NO: 1) has a Survivors/Total, mixing test, 2 LD50, molar ratio toxin:scFv 1:5 (survivors of 6 mice) [1] of 6, a Survivors/Total, mixing test, 3 LD50, molar ratio toxin:scFv 1:3.3 (survivors of 6 mice) [1] of 6 and a Survivors/Total, mixing test, 4 LD50, molar ratio toxin:scFv 1:2.5 (survivors of 6 mice) [1] of 6. The Survivors/Total, mixing test, 5 LD50, molar ratio toxin:scFv 1:2 (survivors of 6 mice) [1] was 6, the Survivors/total, mice injected with venom premixed with scFv, 2 LD50, molar ratio toxin:scFv 1:10 (survivors of 6 mice) [1] was 6 and the Kd [2] was 1.1 nM. For the same substance, the TR (min), residence time [2] was 63 min, the koff [2] was 0.000261 s⁻¹ and the kon [2] was 237000 M⁻¹ s⁻¹. For the same substance, the Kd [3] was 1.84 nM, the TR (min), residence time [3] was 49 min and the koff [3] was 0.00034 s⁻¹. For the same substance, the kon [3] was 185000 M⁻¹ s⁻¹.
